Assay results from EP4471049A1 (Zealand Pharma A/S, priority 2023, dated 2024).
Read-outs that look alike come from different tables or passages of the source. *1 amine or outer side, *2 acyl side, *3 side chain or, on linkers, in order; H or OH if unused. Bridges are numbered along the chain shown (N, C = ends). [ ]: non-standard residue; d: D form. The star is where a group is joined. 4‑Aminomethyl‑phenylacetyl = 4-aminomethyl-phenylacetyl unit, its amine closes the lactam, O=C(Cc1ccc(CN[*:1])cc1)[*:2]; αMeAla(3-pyridyl) = C[C@](N)(Cc1cccnc1)C(=O)O; NH(4-(3-pyridyl)butyl) = c1cncc(CCCCN*)c1; 2Nal = N[C@@H](Cc1ccc2ccccc2c1)C(=O)O; AEF = NCCOc1ccc(C[C@H](N)C(=O)O)cc1; NMe3Pal = CN[C@@H](Cc1cccnc1)C(=O)O; 3Pal = N[C@@H](Cc1cccnc1)C(=O)O; d3Pal = N[C@H](Cc1cccnc1)C(=O)O; αMeL = CC(C)C[C@](C)(N)C(=O)O; β3hL = CC(C)C[C@H](N)CC(=O)O; Dab = NCC[C@H](N)C(=O)O; Sar = CNCC(=O)O

T1: Nluc-IL23R fusion protein (human, UniProt Q5VWK5 22-629)
T1 construct: range 22-629; expressed with a secretion signal in HEK293 cells; used as crude membrane preparation; also called hIL-23R; human IL-23R; not shown: Nanoluc protein from the expression plasmid N1371 (Promega), N-terminal of IL-23R
T1 sequence (looked up): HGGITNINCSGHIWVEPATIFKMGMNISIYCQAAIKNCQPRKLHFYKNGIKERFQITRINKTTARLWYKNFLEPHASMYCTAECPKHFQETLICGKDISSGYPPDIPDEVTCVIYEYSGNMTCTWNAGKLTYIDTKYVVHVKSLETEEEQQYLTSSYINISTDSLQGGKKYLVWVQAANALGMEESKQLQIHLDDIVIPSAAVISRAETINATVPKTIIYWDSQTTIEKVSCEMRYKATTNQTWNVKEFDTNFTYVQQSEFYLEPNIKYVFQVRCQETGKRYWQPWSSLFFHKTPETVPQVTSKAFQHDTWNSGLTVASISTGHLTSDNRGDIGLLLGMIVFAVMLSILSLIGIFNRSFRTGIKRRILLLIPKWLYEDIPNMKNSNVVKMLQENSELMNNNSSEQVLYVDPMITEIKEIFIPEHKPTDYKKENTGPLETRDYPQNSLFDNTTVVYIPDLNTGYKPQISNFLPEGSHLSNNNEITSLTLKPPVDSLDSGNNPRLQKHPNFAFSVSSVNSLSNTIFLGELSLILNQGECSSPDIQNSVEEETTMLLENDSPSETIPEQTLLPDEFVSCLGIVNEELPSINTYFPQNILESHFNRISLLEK

T2: human IL-23R endogenously expressed on DB cells (human, UniProt Q5VWK5 24-629)
T2 sequence (looked up): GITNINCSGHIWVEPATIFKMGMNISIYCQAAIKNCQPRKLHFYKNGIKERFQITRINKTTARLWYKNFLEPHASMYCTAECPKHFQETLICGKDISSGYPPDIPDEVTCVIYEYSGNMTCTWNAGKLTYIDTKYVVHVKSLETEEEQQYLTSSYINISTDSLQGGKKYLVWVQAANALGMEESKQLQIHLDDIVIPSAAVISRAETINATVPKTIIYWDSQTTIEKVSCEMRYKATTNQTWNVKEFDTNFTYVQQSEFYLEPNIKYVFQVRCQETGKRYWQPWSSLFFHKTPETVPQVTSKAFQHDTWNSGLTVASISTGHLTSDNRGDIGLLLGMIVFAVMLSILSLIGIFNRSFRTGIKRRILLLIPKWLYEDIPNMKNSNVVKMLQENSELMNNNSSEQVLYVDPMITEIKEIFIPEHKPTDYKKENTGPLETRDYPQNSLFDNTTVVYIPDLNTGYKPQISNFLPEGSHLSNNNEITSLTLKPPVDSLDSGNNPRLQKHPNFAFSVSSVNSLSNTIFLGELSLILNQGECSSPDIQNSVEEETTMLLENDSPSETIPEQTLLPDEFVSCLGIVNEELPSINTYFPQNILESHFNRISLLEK


How the values were obtained:
[1] = molecular target: T1, Nluc-IL23R fusion protein; experiment: BRET competition vs TAMRA-labelled peptide, Nluc-IL23R membranes; as to % displacement (hIL-23R binding): test concentration or dose not given here
[2] = molecular target: T2, human IL-23R endogenously expressed on …; experiment: cell-based or functional assay
[3] = molecular target: T1, Nluc-IL23R fusion protein; experiment: BRET competition vs TAMRA-labelled peptide, Nluc-IL23R membranes; remark: listed apart in the source; as to % displacement (hIL-23R binding): test concentration or dose not given here
[4] = molecular target: T1, Nluc-IL23R fusion protein; experiment: Ki from BRET competition (Cheng-Prusoff), Nluc-IL23R membranes
[5] = molecular target: T2, human IL-23R endogenously expressed on …; experiment: cell-based or functional assay; remark: listed apart in the source
[6] = molecular target: T1, Nluc-IL23R fusion protein; experiment: BRET competition vs TAMRA-labelled peptide, Nluc-IL23R membranes; remark: listed apart in the source; as to % displacement (hIL-23R binding): test concentration or dose not given here
[7] = molecular target: T2, human IL-23R endogenously expressed on …; experiment: cell-based or functional assay; remark: listed apart in the source
[8] = molecular target: T1, Nluc-IL23R fusion protein; experiment: BRET competition vs TAMRA-labelled peptide, Nluc-IL23R membranes; remark: listed apart in the source; as to % displacement (hIL-23R binding): test concentration or dose not given here
[9] = molecular target: T2, human IL-23R endogenously expressed on …; experiment: cell-based or functional assay; remark: listed apart in the source
[10] = molecular target: T2, human IL-23R endogenously expressed on …; experiment: cell-based or functional assay; remark: listed apart in the source

Row | Binder | hIL-23 (pSTAT3) antagonist % inhibition [2] | hIL-23 (pSTAT3) antagonist IC50 [2] | % displacement (hIL-23R binding) [8] | other results
1 | [4‑Aminomethyl‑phenylacetyl]SEWQ[Dab][AEF][2Nal][αMeL]E[Dab][3Pal][Sar]-NH2 (lactam N-10, 3-6; SMILES CC(C)C[C@]1(C)NC(=O)[C@H](Cc2ccc3ccccc3c2)NC(=O)[C@H](Cc2ccc(OCCN)cc2)NC(=O)[C@@H]2CCNC(=O)CC[C@H](NC(=O)[C@H](CO)NC(=O)Cc3ccc(cc3)CNC(=O)CC[C@@H](C(=O)N[C@@H](CCN)C(=O)N[C@@H](Cc3cccnc3)C(=O)N(C)CC(N)=O)NC1=O)C(=O)N[C@@H](Cc1c[nH]c3ccccc13)C(=O)N[C@@H](CCC(N)=O)C(=O)N2) [Compound 9] | 97% | 25 pM | – | IC50 (pSTAT3) [5]: 25 pM; % displacement (hIL-23R binding) [6]: 100%
2 | [4‑Aminomethyl‑phenylacetyl]SEWQ[Dab][AEF][2Nal][αMeL]E[Dab]-{NH(4-(3-pyridyl)butyl)} (lactam N-10, 3-6) [Compound 6] | 99% | 3.2 nM | 103% | IC50 (pSTAT3) [7]: 3.2 nM; IC50 [8]: 0.037 nM
3 | [4‑Aminomethyl‑phenylacetyl]SEWQ[Dab][AEF][2Nal][αMeL]E[Dab][αMeAla(3-pyridyl)]-NH2 (lactam N-10, 3-6; SMILES CC(C)C[C@]1(C)NC(=O)[C@H](Cc2ccc3ccccc3c2)NC(=O)[C@H](Cc2ccc(OCCN)cc2)NC(=O)[C@@H]2CCNC(=O)CC[C@H](NC(=O)[C@H](CO)NC(=O)Cc3ccc(cc3)CNC(=O)CC[C@@H](C(=O)N[C@@H](CCN)C(=O)N[C@@](C)(Cc3cccnc3)C(N)=O)NC1=O)C(=O)N[C@@H](Cc1c[nH]c3ccccc13)C(=O)N[C@@H](CCC(N)=O)C(=O)N2) [Compound 3] | 98% | 1.7 nM | 99% | IC50 (pSTAT3) [9]: 1.7 nM
4 | H-GCTCWECWWLCS-NH2 (bridge 4-7, 2-11; not fully specified (bridges), compound from Heinis et al., 2020, synthesised for comparison) [I1 (isomer 3)] | 83% | – | – | IC50 [1]: 130 nM; % displacement (hIL-23R binding) [3]: 105%; IC50 [3]: 130 nM; Ki [4]: 104 nM
5 | [4‑Aminomethyl‑phenylacetyl]SEWQ[Dab][AEF][2Nal][αMeL]E[Dab][d3Pal]-NH2 (lactam N-10, 3-6) [Compound 5] | 95% | 2.1 nM | 99% | IC50 (pSTAT3) [10]: 2.1 nM
6 | [4‑Aminomethyl‑phenylacetyl]SEWQ[Dab][AEF][2Nal][αMeL]E[Dab][NMe3Pal]-NH2 (lactam N-10, 3-6) [Compound 4] | 100% | 6.5 nM | 111% | IC50 (pSTAT3) [9]: 6.5 nM; IC50 [8]: 0.17 nM
7 | [4‑Aminomethyl‑phenylacetyl]SEWQ[Dab][AEF][2Nal][αMeL]E[Dab][3Pal]-NHMe (lactam N-10, 3-6) [Compound 8] | 101% | 53 pM | 103% | IC50 (pSTAT3) [9]: 53 pM

The next lines start with results.

Row | hIL-23 (pSTAT3) antagonist % inhibition [2] | hIL-23 (pSTAT3) antagonist IC50 [2] | % displacement (hIL-23R binding) [8] | Binder | other results
8 | 97% | 11 nM | – | [4‑Aminomethyl‑phenylacetyl]SCWQC[AEF][2Nal][αMeL]E[dR]-NH2 (lactam N-10; bridge 3-6; not fully specified (bridges); printed as [4-Aminomethyl-phenylacetyl](1c)*SC(2a)WQC(2a)[Y(2-aminoethoxy)][2-Nal][2-Me-Leu]E(1c)[{d}R]-[NH2], Y = Y(2-aminoethoxy), R = D-Arg) [Ref 80] | IC50 [1]: 0.18 nM; % displacement (hIL-23R binding) [3]: 98%; IC50 [3]: 0.18 nM; Ki [4]: 0.15 nM
9 | 99% | 13 nM | – | XQTWQCYWXENG ([Ac]-[Abu](16i)QTWQC(16i)[Y(2-aminoethoxy)]W[2-Me-Lys]ENG-[NH2]; (16i) [2,7] thioether bridge (cystathionine); N-terminal acetyl, C-terminal amide, Y = Y(2-aminoethoxy)) [Compound C] | IC50 [1]: 2.6 nM; % displacement (hIL-23R binding) [3]: 102%; IC50 [3]: 2.6 nM; Ki [4]: 2.11 nM
10 | 99% | 38 pM | – | [4‑Aminomethyl‑phenylacetyl]SEWQ[Dab][AEF][2Nal][αMeL]E[Dab][3Pal][dH]-NH2 (lactam N-10, 3-6; SMILES CC(C)C[C@]1(C)NC(=O)[C@H](Cc2ccc3ccccc3c2)NC(=O)[C@H](Cc2ccc(OCCN)cc2)NC(=O)[C@@H]2CCNC(=O)CC[C@H](NC(=O)[C@H](CO)NC(=O)Cc3ccc(cc3)CNC(=O)CC[C@@H](C(=O)N[C@@H](CCN)C(=O)N[C@@H](Cc3cccnc3)C(=O)N[C@H](Cc3c[nH]cn3)C(N)=O)NC1=O)C(=O)N[C@@H](Cc1c[nH]c3ccccc13)C(=O)N[C@@H](CCC(N)=O)C(=O)N2) [Compound 10] | IC50 (pSTAT3) [5]: 38 pM; % displacement (hIL-23R binding) [6]: 91%
11 | 99% | 6.8 nM | 100% | [4‑Aminomethyl‑phenylacetyl]SEWQ[Dab][AEF][2Nal][αMeL]E[Dab][dH]-NH2 (lactam N-10, 3-6; SMILES CC(C)C[C@]1(C)NC(=O)[C@H](Cc2ccc3ccccc3c2)NC(=O)[C@H](Cc2ccc(OCCN)cc2)NC(=O)[C@@H]2CCNC(=O)CC[C@H](NC(=O)[C@H](CO)NC(=O)Cc3ccc(cc3)CNC(=O)CC[C@@H](C(=O)N[C@@H](CCN)C(=O)N[C@H](Cc3c[nH]cn3)C(N)=O)NC1=O)C(=O)N[C@@H](Cc1c[nH]c3ccccc13)C(=O)N[C@@H](CCC(N)=O)C(=O)N2) [Compound 13] | IC50 (pSTAT3) [10]: 6.8 nM
12 | 98% | 0.68 nM | – | [4‑Aminomethyl‑phenylacetyl]SEWQ[Dab][AEF][2Nal][αMeL]E[Dab][3Pal][β3hL]-NH2 (lactam N-10, 3-6; SMILES CC(C)C[C@@H](CC(N)=O)NC(=O)[C@H](Cc1cccnc1)NC(=O)[C@H](CCN)NC(=O)[C@@H]1CCC(=O)NCc2ccc(cc2)CC(=O)N[C@@H](CO)C(=O)N[C@H]2CCC(=O)NCC[C@H](NC(=O)[C@H](CCC(N)=O)NC(=O)[C@H](Cc3c[nH]c4ccccc34)NC2=O)C(=O)N[C@@H](Cc2ccc(OCCN)cc2)C(=O)N[C@@H](Cc2ccc3ccccc3c2)C(=O)N[C@@](C)(CC(C)C)C(=O)N1) [Compound 11] | IC50 (pSTAT3) [5]: 0.68 nM; % displacement (hIL-23R binding) [6]: 103%; IC50 [6]: 0.024 nM
